For assay [1], the target named is His-HTLV-1 125 PR (N-terminally His-tagged full-length stabilized HTLV-1 protease) (Human T-lymphotropic virus type 1 (HTLV-1)). Briefly: pull-down.
The target in assay [2] is HTLV-1 120 PR (HTLV-1 protease shortened by 5 C-terminal residues) (Human T-lymphotropic virus type 1 (HTLV-1)). Briefly: activity-based dimerization assay.
The target in assay [3] is HTLV-1 125 PR (stabilized full-length HTLV-1 protease) (Human T-lymphotropic virus type 1 (HTLV-1)). Briefly: activity-based dimerization assay.
For assay [4] the target is unchanged. Briefly: SEC.

On to “HTLV-1 115 PR (HTLV-1 protease shortened by 10 C-terminal residues) (domain or fragment)”, for which, in assay [1], the densitometric ratio of the untagged to the His-tagged band (115/H125) worked out at 37.3.
“HTLV-1 120 PR (HTLV-1 protease shortened by 5 C-terminal residues) (domain or fragment)”: the Kd in assay [2] is above 3000 nM. Further, the densitometric ratio of the untagged to the His-tagged band (120/H125) in assay [1] worked out at 37.2.
In the case of “HTLV-1 125 PR (stabilized full-length HTLV-1 protease) (enzyme)”, the Kd in assay [3] worked out at 491 nM. In assay [1], the densitometric ratio of the untagged to the His-tagged band (125/H125) stood at 84.9. In assay [4], this substance came in with a stoichiometry N of 2.

By Kd is commonly meant the free concentration of one partner at which half of the binding sites on the other are occupied at equilibrium, for simple one-to-one binding. The low end stands for tighter binding, the high end for weaker binding. Broadly, the stoichiometry N is the number of molecules, sites or subunits per partner or assembly.

For the origin of these results see article PMC2778851.
